Where only a bound is given, the exact number is not on record here.

Assay [1] deals with T1, human ROR1 Frizzled domain (hROR1-Fz) (human, UniProt Q01973 165-305).
T1 construct: Acro Biosystems, made in HEK293
In words: SPR Biacore, IgG on anti-Fc, ROR1-Fz analyte. Here is the method:
Anti-Fc polyclonal antibodies were immobilized onto a CMS chip (GE Life Sciences) using amine coupling chemistry (from Amine Coupling Kit, GE Life Sciences). The immobilization steps were carried out at a flow rate of 25 μL/min in 1×HBS-EP+buffer (GE Life Sciences; 10× Stock diluted before use). The sensor surfaces were activated for 7 min with a mixture of NHS (0.05 M) and EDC (0.2 M). The Anti-Fc antibodies were injected over all 4 flow cells at a concentration of 25 ug/ml in 10 mM sodium acetate, pH 4.5, for 7 min. Ethanolamine (1 M, pH 8.5) was injected for 7 min to block any remaining activated groups.
Off-rate and kinetic binding experiments were performed at 25° C. using 1×HBS-EP+buffer. Test and control antibodies were injected over the anti-Fc surface at concentrations of 5-10 μg/mL for 12 seconds at a flow rate of 10 μL/min on flow cells 2, 3 and 4, followed by a buffer wash for 30 seconds at the same flow rate. […] After capturing ligand (antibody) on the anti-Fc surface, the analyte (hROR1, Fz or Kr domains, Acro Biosystems, Delaware) was bound for 180 seconds, followed by a 600 second dissociation phase at a flow rate of 50 μL/min. Between each ligand capture and analyte binding cycle, regeneration was carried out using 2 injections of 10 mM Glycine pH 2.0 for 30 seconds at 30 μL/min, followed by a 30 second buffer wash step.
On the technique in general: SPR reads the build-up and loss of mass on a sensor chip optically.

Another assay concerns the target T2, human ROR1 (hROR1) (human, UniProt Q01973 30-937).
T2 construct: On HCT116-hROR1 transfectants, Mino cells or Ntera-2 cells, as the assay of each row says; also called receptor tyrosine kinase like orphan receptor 1
In words: flow cytometry, HCT116-hROR1 cells. Here is the method:
A mix of ROR1 positive and negative cells was prepared as follows. Ror1 negative cells were washed 2× in PBS then incubated in PBS containing 1 nM CellTrace™ Oregon Green488® (Life Technologies) at 37° C. for 30 minutes. Cells were then washed 2× with RPMI w/10% fetal calf serum (or FCS), washed 2× with FACS buffer (PBS+0.5% BSA), suspended thoroughly in ice-cold FACS buffer at a final concentration of 4×10^6 cells/ml and kept on ice. ROR1 positive cells were washed 2× in PBS and suspended with ice-cold FACS buffer at 4×10^6 cells/ml. ROR1 positive and negative cells were then mixed to obtain a 1-1 cell suspension and seeded at 50 μl per well on 96 well polypropylene plates. 50 μl of 6-12 point dilutions of anti-ROR1 variants starting from concentrations of ˜100-200 nM antibody was dispensed using BioMekFX (Beckman Coulter) into each well. Cells were then incubated on ice for 1 hr, washed with FACS buffer and incubated for 1 hr on ice with 50 μl FACS buffer containing 2.5 μg/ml Alexa647-conjugated Goat Anti-Human IgG dispensed using BioMekFX (Beckman Coulter). Cells were then washed 2× with FACS buffer and fixed for 10 minutes in 200 μl PBS with 2% PFA prior to fluorescence detection. Samples were acquired using a Beckton Dickinson LSRII FACS. Mean Fluorescence Intensity of ROR1 antibody binding was analyzed using FlowJo® software (Tree Star, Inc.).
(In general: A flow cytometer gives signals particle by particle.)

B1: SRP2194-B04 (antibody, IgG1, V domains shown)
VH: EVQLVESGGGLVQPGGSLRLSCAASGFNITGYHIHWVRQAPGKGLEWVGYISPLAGNTYHADSVKGRFTISADTSKNTAYLQMNSLRAEDTAVYYCTRDSRRYVRPLDYWGQGTLVTVSS
VL: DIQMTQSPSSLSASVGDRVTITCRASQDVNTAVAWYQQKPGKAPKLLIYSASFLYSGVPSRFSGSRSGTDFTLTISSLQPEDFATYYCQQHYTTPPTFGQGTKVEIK
notes: His/FLAG-tagged IgG1, cell-free; also called Antibody 129
Regarding B1, in assay [1], the affinity, expressed as Kd, was 1.44 nM; the koff came to 0.000392 s⁻¹; the kon was 271000 M⁻¹ s⁻¹. Also, in the assay with human ROR1 (hROR1), the “Bmax (MFI)” value was 9300 MFI and the affinity, expressed as Kd, was 0.2 nM.

B2: SRP2194-A02 (antibody, IgG1, V domains shown)
VH: EVQLVESGGGLVQPGGSLRLSCAASGFNITGYYIHWVRQAPGKGLEWVGYISPLAGNTYHADSVKGRFTISADTSKNTAYLQMNSLRAEDTAVYYCARDSRRYVRPFDYWGQGTLVTVSS
VL: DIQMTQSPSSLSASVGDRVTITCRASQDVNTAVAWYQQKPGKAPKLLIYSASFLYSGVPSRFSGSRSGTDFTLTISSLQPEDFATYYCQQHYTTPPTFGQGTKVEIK
notes: His/FLAG-tagged IgG1, cell-free
In assay [1], B2 returned a Kd of 1.39 nM, a koff of 0.000429 s⁻¹ and a kon of 308000 M⁻¹ s⁻¹. Moreover, in the assay with human ROR1 (hROR1), the “Bmax (MFI)” value amounted to 9220 MFI and the Kd amounted to 0.14 nM.

B3: SRP2196-B08 (antibody, V domains shown)
VH: EVQLVESGGGLVQPGGSLRLSCAASGFNITGYYIHWVRQAPGKGLEWVGQISPNSGYTYLADSVKGRFTISADTSKNTAYLQMNSLRAEDTAVYYCARDSRRYVRGWDYWGQGTLVTVSS
VL: QAVVTQESALTTSPGETVTLTCRSSTGAVTTSNYANWVQEKPDHLFTGLIGGTNKRAPGVPARFSGSLIGDKAALTITGAQTEDEAIYFCALWYSNLWVFGGGTKLTVL
notes: His/FLAG-tagged IgG1
In assay [1], B3 returned a Kd of 3.13 nM, a koff of 0.000488 s⁻¹ and a kon of 156000 M⁻¹ s⁻¹. For the same molecule, in the assay with human ROR1 (hROR1), the “Bmax (MFI)” value amounted to 14400 MFI and the Kd was 0.2 nM.

B4: SRP2196-A08 (antibody, V domains shown)
VH: EVQLVESGGGLVQPGGSLRLSCAASGFNITGYYIHWVRQAPGKGLEWVGYISPNSGSTYKADSVKGRFTISADTSRNTAYLQMNSLRAEDTAVYYCARDSRRYVRSWDYWGQGTLVTVSS
VL: QAVVTQESALTTSPGETVTLTCRSSTGAVTTSNYANWVQEKPDHLFTGLIGGTNKRAPGVPARFSGSLIGDKAALTITGAQTEDEAIYFCALWYSNLWVFGGGTKLTVL
notes: His/FLAG-tagged IgG1
For B4, in assay [1], binding was characterised by a dissociation constant (Kd) of 4.26 nM, the off-rate constant (koff) was 0.00078 s⁻¹ and the kon stood at 183000 M⁻¹ s⁻¹. Further, in the assay with human ROR1 (hROR1), the “Bmax (MFI)” value stood at 13900 MFI and binding was put at a Kd of 0.2 nM.

B5: SRP2196-B02 (antibody, V domains shown)
VH: EVQLVESGGGLVQPGGSLRLSCAASGFNITQYYIHWVRQAPGKGLEWVGYISPNSGQTYDADSVKGRFTISADTSKNTAYLQMNSLRAEDTAVYYCARDSRRYVRSWDYWGQGTLVTVSS
VL: QAVVTQESALTTSPGETVTLTCRSSTGAVTTSNYANWVQEKPDHLFTGLIGGTNKRAPGVPARFSGSLIGDKAALTITGAQTEDEAIYFCALWYSNLWVFGGGTKLTVL
notes: His/FLAG-tagged IgG1
On to B5, for which, in assay [1], the Kd came to 1.39 nM, the koff stood at 0.000227 s⁻¹ and the on-rate constant (kon) worked out at 163000 M⁻¹ s⁻¹. Besides, in the assay with human ROR1 (hROR1), the “Bmax (MFI)” value amounted to 14900 MFI and the affinity, expressed as Kd, was 0.3 nM.

B6: SRP2196-A04 (antibody, V domains shown)
VH: EVQLVESGGGLVQPGGSLRLSCAASGFNISPYYIHWVRQAPGKGLEWVGQIYPISGHTYQADSVKGRFTISADTSKNTAYLQMNSLRAEDTAVYYCARESRRYVGPFGYWGQGTLVTVSS
VL: QAVVTQESALTTSPGETVTLTCRSSTGAVTTSNYANWVQEKPDHLFTGLIGGTNKRAPGVPARFSGSLIGDKAALTITGAQTEDEAIYFCALWYSNLWVFGGGTKLTVL
notes: His/FLAG-tagged IgG1
In assay [1], B6 displayed a Kd of 2.46 nM, a koff of 0.000343 s⁻¹ and a kon of 139000 M⁻¹ s⁻¹. In the assay with human ROR1 (hROR1), the “Bmax (MFI)” value is 14200 MFI and the affinity, expressed as Kd, was 0.1 nM.

B7: SRP2196-A10 (antibody, V domains shown)
VH: EVQLVESGGGLVQPGGSLRLSCAASGFNITGYYIHWVRQAPGKGLEWVGYISPNSGATHYADSVKGRFTISADISKNTAYLQMNSLRAEDTAVHYCARDSRRYVRSWDYWGQGTLVTVSS
VL: QAVVTQESALTTSPGETVTLTCRSSTGAVTTSNYANWVQEKPDHLFTGLIGGTNKRAPGVPARFSGSLIGDKAALTITGAQTEDEAIYFCALWYSNLWVFGGGTKLTVL
notes: His/FLAG-tagged IgG1
In assay [1], B7 yielded a Kd of 2.78 nM, a koff of 0.000479 s⁻¹ and an on-rate constant (kon) of 172000 M⁻¹ s⁻¹. Also, in the assay with human ROR1 (hROR1), the “Bmax (MFI)” value was 14400 MFI and the Kd worked out at 0.3 nM.

B8: SRP2196-A05 (antibody, V domains shown)
VH: EVQLVESGGGLVQPGGSLRLSCAASGFNITNYYIHWVRQAPGKGLEWVGYISPNSGATYQADSVKGRFTISADTSKNTAYLQMNSLRAEDTAVYYCARDSRRYVRSWDYWGQGTLVTVSS
VL: QAVVTQESALTTSPGETVTLTCRSSTGAVTTSNYANWVQEKPDHLFTGLIGGTNKRAPGVPARFSGSLIGDKAALTITGAQTEDEAIYFCALWYSNLWVFGGGTKLTVL
notes: His/FLAG-tagged IgG1
In assay [1], B8 gave a Kd of 3.9 nM, a koff of 0.000682 s⁻¹ and a kon of 175000 M⁻¹ s⁻¹. Moreover, in the assay with human ROR1 (hROR1), the “Bmax (MFI)” value stood at 14800 MFI and the Kd came to 0.3 nM.

B9: SRP2196-A06 (antibody, V domains shown)
VH: EVQLVESGGGLVQPGGSLRLSCAASGFNITGYYIHWVRQAPGKGLEWVGQISPNSGSTHQADSVKGRFTISADTSKNTAYLQMNSLRAGDTAVYYCARDSRRYVRGWDYWGQGTLVTVSS
VL: QAVVTQESALTTSPGETVTLTCRSSTGAVTTSNYANWVQEKPDHLFTGLIGGTNKRAPGVPARFSGSLIGDKAALTITGAQTEDEAIYFCALWYSNLWVFGGGTKLTVL
notes: His/FLAG-tagged IgG1
In assay [1], B9 registered a Kd of 3.82 nM, a koff of 0.00069 s⁻¹ and a kon of 180000 M⁻¹ s⁻¹. For the same molecule, in the assay with human ROR1 (hROR1), the “Bmax (MFI)” value was 14600 MFI and the dissociation constant Kd came out at 0.2 nM.

B10: SRP2196-A11 (antibody, V domains shown)
VH: EVQLVESGGGLVQPGGSLRLSCAASGFNITGYYIHWVRQAPGKGLEWVGQISPNSGTTYDADSVKGRFTISADTSKNTAYLQMNSLRAEDTAVYYCARDSRRYVRGWDYWGQGTLVTVSS
VL: QAVVTQESALTTSPGETVTLTCRSSTGAVTTSNYANWVQEKPDHLFTGLIGGTNKRAPGVPARFSGSLIGDKAALTITGAQTEDEAIYFCALWYSNLWVFGGGTKLTVL
notes: His/FLAG-tagged IgG1
In assay [1], B10 gave a Kd of 4.16 nM, a koff of 0.000792 s⁻¹ and a kon of 191000 M⁻¹ s⁻¹. In the assay with human ROR1 (hROR1), the “Bmax (MFI)” value was found to be 14000 MFI and the Kd is < 0.05 nM.

B11: SRP2196-A07 (antibody, V domains shown)
VH: EVQLVESGGGLVQPGGSLRLSCAASGFNITGYYIHWVRQAPGKGLEWVGQISPNSGSTYYADSVKGRFTISADTSKNTAYLQMSSLRAEDTAVYYCARDSRRYVRGWDYWGQGTLVTVSS
VL: QAVVTQESALTTSPGETVTLTCRSSTGAVTTSNYANWVQEKPDHLFTGLIGGTNKRAPGVPARFSGSLIGDKAALTITGAQTEDEAIYFCALWYSNLWVFGGGTKLTVL
notes: His/FLAG-tagged IgG1
B11: in assay [1], the Kd was found to be 3.44 nM, the koff is 0.00064 s⁻¹ and the kon came to 186000 M⁻¹ s⁻¹. In the assay with human ROR1 (hROR1), the “Bmax (MFI)” value was found to be 14100 MFI and the affinity, expressed as Kd, was 0.2 nM.

B12: SRP2196-A03 (antibody, V domains shown)
VH: EVQLVESGGGLVQPGGSLRLSCAASGFNITQYHIHWVRQAPGKGLEWVGYISPNSGSTHEADSVKGRFTISADTSKNTAYLQMNSLRAEDTAVYYCARDSRRYVRGWDYWGQGTLVTVSS
VL: QAVVTQESALTTSPGETVTLTCRSSTGAVTTSNYANWVQEKPDHLFTGLIGGTNKRAPGVPARFSGSLIGDKAALTITGAQTEDEAIYFCALWYSNLWVFGGGTKLTVL
notes: His/FLAG-tagged IgG1; also called Antibody 150
B12: in assay [1], the Kd amounted to 1.63 nM, the koff is 0.000275 s⁻¹ and the kon was 169000 M⁻¹ s⁻¹. For the same molecule, in the assay with human ROR1 (hROR1), the “Bmax (MFI)” value is 15400 MFI and binding was characterised by a dissociation constant (Kd) of 0.3 nM.

B13: SRP2196-B01 (antibody, V domains shown)
VH: EVQLVESGGGLVQPGGSLRLSCAASGFNITGYYIHWVRQAPGKGLEWVGQISPNSGYTYYADSVKGRFTISADTSKNTTYLQMNSLRAEDTAVYYCARDSRRYVRSWDYWGQGTLVTVSS
VL: QAVVTQESALTTSPGETVTLTCRSSTGAVTTSNYANWVQEKPDHLFTGLIGGTNKRAPGVPARFSGSLIGDKAALTITGAQTEDEAIYFCALWYSNLWVFGGGTKLTVL
notes: His/FLAG-tagged IgG1
Take B13: in assay [1], the Kd turned out to be 3.06 nM, the koff stood at 0.000401 s⁻¹ and the kon was 131000 M⁻¹ s⁻¹. Further, in the assay with human ROR1 (hROR1), the “Bmax (MFI)” value was found to be 15300 MFI and the Kd amounted to 0.3 nM.

As usually defined, the Kd is the free concentration of one partner at which half of the binding sites on the other are occupied at equilibrium, for simple one-to-one binding. A low value points to tighter binding. The koff is a measure of how fast the partners let go of each other. Low values mean a long-lived complex, high ones a short-lived complex. In general, kon refers to the second-order rate constant of association. Read a low kon as slower complex formation.

Values taken from patent US20240058465A1 (SUTRO BIOPHARMA, published 2024).
